{"source": "paper doi:10.1101/2021.12.14.472590", "about": "(bioRxiv, 2021)", "binders": {"B1": {"name": "ADAP1-381 (N-terminal intrinsically disordered fragment of ADAP) (domain or fragment)", "chain": "MAKYNTGGNPTEDVSVNSRPFRVTGPNSSSGIQARKNLFNNQGNASPPAGPSNVPKFGSPKPPVAVKPSSEEKPDKEPKPPFLKPTGAGQRFGTPASLTTRDPEAKVGFLKPVGPKPINLPKEDSKPTFPWPPGNKPSLHSVNQDHDLKPLGPKSGPTPPTSENEQKQAFPKLTGVKGKFMSASQDLEPKPLFPKPAFGQKPPLSTENSHEDESPMKNVSSSKGSPAPLGVRSKSGPLKPAREDSENKDHAGEISSLPFPGVVLKPAASRGGPGLSKNGEEKKEDRKIDAAKNTFQSKINQEELASGTPPARFPKAPSKLTVGGPWGQSQEKEKGDKNSATPKQKPLPPLFTLGPPPPKPNRPPNVDLTKFHKTSSGNSTS"}}, "target": "human β-actin (recombinant G-actin) (human, UniProt P60709 1-375)", "experiment": "NMR titration"}
{"binder": "B1", "values": [{"measurement": "binding result", "value": "binds"}]}
